In patent US20250223358A1 (ANTENGENE BIOLOGICS, published 2025):
Positions count from the first letter of the chain named. Names and notes keep the numbering of the source. Read-outs that look alike come from different tables or passages of the source. Blank lines part the entries; values can stand above or below the binder they belong to.

Tests used:
[1] = target: T1, human CD3 (human, UniProt P07766 23-207; P04234 22-171; P09693 23-182); assay: FACS on Jurkat cells
T1 construct: whole, on cells; also called hCD3; CD3 on Jurkat cells
T1 sequence (P07766 23-207, chain 1 of 3): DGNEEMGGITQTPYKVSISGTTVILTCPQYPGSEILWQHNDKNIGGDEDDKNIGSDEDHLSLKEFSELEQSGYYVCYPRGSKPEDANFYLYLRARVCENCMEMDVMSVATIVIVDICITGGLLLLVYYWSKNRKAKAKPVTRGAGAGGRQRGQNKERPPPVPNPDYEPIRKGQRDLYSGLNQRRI
T1 sequence (P04234 22-171, chain 2 of 3): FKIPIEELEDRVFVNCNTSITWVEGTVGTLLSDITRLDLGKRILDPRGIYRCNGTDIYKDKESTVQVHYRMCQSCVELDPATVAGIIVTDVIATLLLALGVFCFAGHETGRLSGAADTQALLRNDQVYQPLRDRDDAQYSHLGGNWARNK
T1 sequence (P09693 23-182, chain 3 of 3): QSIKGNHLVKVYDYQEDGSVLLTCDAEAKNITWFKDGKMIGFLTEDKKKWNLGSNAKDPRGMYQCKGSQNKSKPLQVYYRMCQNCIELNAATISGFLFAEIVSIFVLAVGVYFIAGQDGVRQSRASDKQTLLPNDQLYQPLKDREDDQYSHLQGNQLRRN

[2] = target: T1, human CD3; assay: cell-based or functional assay
[3] = target: T1, human CD3; assay: FACS on Jurkat cells; remark: listed apart in the source
[4] = target: T1, human CD3; assay: cell-based or functional assay; remark: listed apart in the source

EC50 [1]: 0.6 nM | Top FACS signal [1]: 1360 | EC50_Fold change (Jurkat-NFAT-luciferase activation, normalized to ch40-C12-C10-E9) [2]: 0.74 fold | Top FACS signal_Fold change (Jurkat-NFAT-luciferase activation, normalized to ch40-C12-C10-E9) [2]: 0.87 fold
B1: hu40E9-L2H3-N93S.L (antibody, V domains shown)
VH: EVQLVQSGAEVKKPGSSVKVSCKASGYTFSSYVIHWVRQAPGQGLEWMGYINPYNDVIKYNEKFKGRVTLTSDKSTSTAYMELSSLRSEDTAVYYCARDSYYSYDGFAYWGQGTLVTVSS
VL: EIVLTQSPDFQSVTPKEKVTITCSASSSVSYMHWYQQKPDQSPKRLIYDTSKLASGVPSRFSGSGSGTDFTLTINSLEAEDAATYYCQQWSSSPPTFGGGTKVEIK

EC50 [1]: 0.47 nM | Top FACS signal [1]: 1160 | EC50_Fold change (Jurkat-NFAT-luciferase activation, normalized to ch40-C12-C10-E9) [2]: 0.87 fold | Top FACS signal_Fold change (Jurkat-NFAT-luciferase activation, normalized to ch40-C12-C10-E9) [2]: 0.96 fold
B2: hu40E9-L2H3-Y102S.H (antibody, V domains shown)
VH: B1 VH with Y102S
VL: B1 VL with S93N

EC50 [1]: 0.52 nM | Top FACS signal [1]: 1410 | EC50_Fold change (Jurkat-NFAT-luciferase activation, normalized to ch40-C12-C10-E9) [2]: 0.57 fold | Top FACS signal_Fold change (Jurkat-NFAT-luciferase activation, normalized to ch40-C12-C10-E9) [2]: 0.73 fold
B3: hu40E9-L3H2 (antibody, V domains shown)
VH: B1 VH with L70I, S72A
VL: B1 VL with L46W, F70Y, S93N
notes: humanized 40-C12-C10-E9

EC50 [3]: 0.48 nM | Top FACS signal [3]: 1850 | EC50_Fold change (Jurkat-NFAT-luciferase activation, normalized to ch40-C12-C10-E9) [4]: 3.41 fold | Top signal_Fold change (Jurkat-NFAT-luciferase activation, normalized to ch40-C12-C10-E9) [4]: 1.15 fold
B4: hu40E9-L5H7 (antibody, V domains shown)
VH: B1 VH with Y54G, D56G, Y102S
VL: B1 VL with S91R

EC50 [3]: 0.43 nM | Top FACS signal [3]: 2020 | EC50_Fold change (Jurkat-NFAT-luciferase activation, normalized to ch40-C12-C10-E9) [4]: 3.86 fold | Top signal_Fold change (Jurkat-NFAT-luciferase activation, normalized to ch40-C12-C10-E9) [4]: 0.96 fold
B5: hu40E9-L2H14 (antibody, V domains shown)
VH: B1 VH with D99E
VL: B1 VL with S93N

EC50 [3]: 28 nM | Top FACS signal [3]: 1240 | EC50_Fold change (Jurkat-NFAT-luciferase activation, normalized to ch40-C12-C10-E9) [4]: 18.4 fold | Top signal_Fold change (Jurkat-NFAT-luciferase activation, normalized to ch40-C12-C10-E9) [4]: 0.69 fold
B6: hu40E9-L2H8 (antibody, V domains shown)
VH: B1 VH with Y54G, D99E, Y102S
VL: B1 VL with S93N

EC50 [1]: 0.49 nM | Top FACS signal [1]: 1360 | EC50_Fold change (Jurkat-NFAT-luciferase activation, normalized to ch40-C12-C10-E9) [2]: 0.61 fold | Top FACS signal_Fold change (Jurkat-NFAT-luciferase activation, normalized to ch40-C12-C10-E9) [2]: 0.64 fold
B7: hu40E9-L3H4 (antibody, V domains shown)
VH: B1 VH with M48I, V68A
VL: B1 VL with L46W, F70Y, S93N
notes: humanized 40-C12-C10-E9

EC50 [3]: 51.7 nM | Top FACS signal [3]: 796 | EC50_Fold change (Jurkat-NFAT-luciferase activation, normalized to ch40-C12-C10-E9) [4]: 98.6 fold | Top signal_Fold change (Jurkat-NFAT-luciferase activation, normalized to ch40-C12-C10-E9) [4]: 0.75 fold
B8: hu40E9-L2H15 (antibody, V domains shown)
VH: B1 VH with D99G
VL: B1 VL with S93N

EC50 [3]: 83.7 nM | Top FACS signal [3]: 2050 | EC50_Fold change (Jurkat-NFAT-luciferase activation, normalized to ch40-C12-C10-E9) [4]: 3.08 fold | Top signal_Fold change (Jurkat-NFAT-luciferase activation, normalized to ch40-C12-C10-E9) [4]: 0.51 fold
B9: hu40E9-L2H13 (antibody, V domains shown)
VH: B1 VH with S100G
VL: B1 VL with S93N

EC50 [3]: 4.17 nM | Top FACS signal [3]: 1260 | EC50_Fold change (Jurkat-NFAT-luciferase activation, normalized to ch40-C12-C10-E9) [4]: 4.57 fold | Top signal_Fold change (Jurkat-NFAT-luciferase activation, normalized to ch40-C12-C10-E9) [4]: 0.74 fold
B10: hu40E9-L2H6 (antibody, V domains shown)
VH: B1 VH with D99E, Y101F, Y102S
VL: B1 VL with S93N

EC50 [3]: 1.27 nM | Top FACS signal [3]: 2010 | EC50_Fold change (Jurkat-NFAT-luciferase activation, normalized to ch40-C12-C10-E9) [4]: 6.18 fold | Top signal_Fold change (Jurkat-NFAT-luciferase activation, normalized to ch40-C12-C10-E9) [4]: 1.35 fold
B11: hu40E9-L2H16 (antibody, V domains shown)
VH: B1 VH with S31D
VL: B1 VL with S93N

EC50 [3]: 0.66 nM | Top FACS signal [3]: 2380 | EC50_Fold change (Jurkat-NFAT-luciferase activation, normalized to ch40-C12-C10-E9) [4]: 1.18 fold | Top signal_Fold change (Jurkat-NFAT-luciferase activation, normalized to ch40-C12-C10-E9) [4]: 0.77 fold
B12: hu40E9-L2H7 (antibody, V domains shown)
VH: B1 VH with Y54G, D56G, Y102S
VL: B1 VL with S93N

EC50 [3]: 72.9 nM | Top FACS signal [3]: 850 | EC50_Fold change (Jurkat-NFAT-luciferase activation, normalized to ch40-C12-C10-E9) [4]: 21.3 fold | Top signal_Fold change (Jurkat-NFAT-luciferase activation, normalized to ch40-C12-C10-E9) [4]: 0.73 fold
B13: hu40E9-L2H12 (antibody, V domains shown)
VH: B1 VH with S100D
VL: B1 VL with S93N
